This passage reports Kd results from publication PMC9405658.

The target in this data set is YadA (Yersinia adhesin A) displayed on E. coli BL21 DE3 cells (Yersinia enterocolitica) (UniProt P0C2W0). The experiment in a line: fluorescence cell-binding assay (eluted FAM-aptamer). The conditions noted are these: 1.4 mM Mg2+; whole cells; authors say true Kd for pure YadA is probably higher; Kd: PBS 1x pH 7.4 (137 mM NaCl, 2.7 mM KCl, 8 mM Na2HPO4, 2 mM KH2PO4) + 1.4 mM MgCl2, 37 C, 75 min, 0-100 nM aptamer; sensor: inactivated cells in PBS 1x pH 7.
UniProt P0C2W0, sequence (P0C2W0 whole entry): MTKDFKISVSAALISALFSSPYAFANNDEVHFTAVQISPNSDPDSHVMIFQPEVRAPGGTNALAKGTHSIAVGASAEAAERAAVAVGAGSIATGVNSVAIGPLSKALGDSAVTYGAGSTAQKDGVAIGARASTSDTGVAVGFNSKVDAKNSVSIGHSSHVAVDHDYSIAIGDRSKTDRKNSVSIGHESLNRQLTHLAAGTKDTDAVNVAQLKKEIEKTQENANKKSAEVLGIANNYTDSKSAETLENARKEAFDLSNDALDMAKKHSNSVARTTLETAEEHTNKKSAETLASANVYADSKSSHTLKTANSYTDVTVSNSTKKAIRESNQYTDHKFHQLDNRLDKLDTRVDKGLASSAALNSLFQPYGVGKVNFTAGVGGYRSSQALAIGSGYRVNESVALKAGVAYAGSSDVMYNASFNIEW

Turning to “ATCCAGAGTGACGCAGCATGACAGACGGGAGAGACACGACGGGGGCGGGGAGTGAGAAGCGCGCGCTGAATGTCGTTGGTGGCCC [Apt1 (FAM)]”, the Kd (commonly the equilibrium constant for the complex coming apart) is 0.011 µM.
